From patent US20250340658A1 (TWIST BIOSCIENCE, published 2025)
Like-named read-outs stand apart in the source and are kept apart here.

Columns and labels:
[1] = target: T1, full length human GLP-1R with N-terminal FLAG tag and C-terminal GFP tag, on CHO cells (human, UniProt P43220 24-463); assay: flow cytometry, expressing vs parent CHO cells
T1 construct: whole, on cells; the cell line itself is tied to UniProt P43220; also called FLAG-GLP-1R-GFP; CHO-GLP-1R
Experimental: (§1) GLP-1R IgG clones were tested in a binding assay coupled to flow cytometry analysis as follows: FLAG-GLP-1R-GFP expressing CHO cells (CHO-GLP-1R) and CHO-parent cells were incubated with 100 nM IgG for 1 h on ice, washed three times and incubated with Alexa 647 conjugated goat-anti-human antibody (1:200) (Jackson ImmunoResearch Laboratories, 109-605-044) for 30 min on ice, followed by three washes, centrifuging to pellet the cells between each washing step. All incubations and washes were in buffer containing PBS+1% BSA. […] Cells were analyzed by flow cytometry and hits (a hit is an IgG that specifically binds to CHO-GLP-1R) were identified by measuring the GFP signal against the Alexa 647 signal. Flow cytometry data of binding assays with 100 nM IgG are presented as dot plots. Analyses of binding assays with IgG titrations are presented as binding curves plotting IgG concentrations against MFI (mean fluorescence intensity).

[2] = target: T1, full length human GLP-1R with …; assay: flow cytometry, expressing vs parent CHO cells; remark: listed apart in the source
Experimental: as §1

[3] = target: T1, full length human GLP-1R with …; assay: flow cytometry, GLP1R-expressing CHO cells
Experimental: as §1

[4] = target: T1, full length human GLP-1R with …; assay: flow cytometry, GLP1R-expressing CHO cells; remark: listed apart in the source
Experimental: as §1

[5] = target: T1, full length human GLP-1R with …; assay: flow cytometry titration, CHO GLP1R cells
Experimental: as §1

[6] = target: T1, full length human GLP-1R with …; assay: flow cytometry titration, CHO GLP1R cells; remark: listed apart in the source
Experimental: as §1

[7] = target: T1, full length human GLP-1R with …; assay: flow cytometry, expressing minus parent CHO cells
Experimental: as §1

[8] = target: T1, full length human GLP-1R with …; assay: flow cytometry, expressing vs parent CHO cells; remark: listed apart in the source
Experimental: as §1

[9] = target: T1, full length human GLP-1R with …; assay: flow cytometry, expressing minus parent CHO cells; remark: listed apart in the source
Experimental: as §1

[10] = target: T1, full length human GLP-1R with …; assay: flow cytometry, expressing vs parent CHO cells; remark: listed apart in the source
Experimental: as §1

MFI Ratio [1] | MFI Ratio [2] | Median RL1-H of Expressing Singlets [3] | Median RL1-H of Expressing Singlets [4] | Bmax [5] | EC50 [5] [nM] | Bmax [6] | EC50 [6] [nM] | Subtraction [7] | MFI Ratio [8] | Subtraction [9] | MFI Ratio [10] | Binder
993 | 993 | 232000 | 224000 | 800000 | 11.5 | 153000 | 15.4 | 224000 | 740 | 232000 | 740 | GLP1R-3 (antibody, human IgG2, lambda, V domains shown, full length human IgG2; also called GLP1R01-3) VH: QVQLVESGGGVVQPGRSLRLSCAASGFTFSSYGMHWVRQAPGKGLEWVSFISYDESNKYYADSVKGRFTISRDNSKNTLYLQMNSLRAEDTAVYYCAKHMSMQEGAVTGEGQAAKEFIAWLVKGRVRADLVGDAFDVWGQGTLVTVSS VL: QSVLTQPPSVSAAPGQKVTISCSGSSSNIADNYVSWYQQLPGTAPKLLIYDNNKRPSGIPDRFSGSKSGTSATLGITGLQTGDEADYYCGTWDNYLGAGVFGGGTKLTVLG
– | – | – | 227000 | – | – | 1.08e+06 | – | 227000 | 525 | – | 525 | GLP1R-222-090 (antibody, V domains shown, IgG) VH: QVQLVESGGGVVQPGRSLRLSCAASGFSFSDYGIHWVRQAPGKGLEWVALISYEGSNKYYADSVKGRFTISRDNSKNTLYLQMNSLRAEDTAVYYCAKHMSMQEGAVTGEKQAAKEFIAWLVKGRVRADLVGDAFDVWGQGTLVTVSS VL: QSVLTQPPSVSAAPGQKVTISCSGSSSNIADNYVSWYQQLPGTAPKLLIYDNNKRASGIPDRFSGSKSGTSATLGITGLQTGDEADYYCATWDNRLSAGVFGGGTKLTVL
